This passage reports cleavage in vitro results from patent publication US20090312277.

The target in this series is p21/WAF1 (UniProt P38936).
Chain of p21/WAF1 (P38936 whole entry): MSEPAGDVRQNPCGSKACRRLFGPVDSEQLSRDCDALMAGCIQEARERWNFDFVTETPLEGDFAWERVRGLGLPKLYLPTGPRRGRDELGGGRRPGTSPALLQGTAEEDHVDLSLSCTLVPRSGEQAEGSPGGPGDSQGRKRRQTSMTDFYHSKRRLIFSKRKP

Chain of cathepsin L (chain, as listed by the source): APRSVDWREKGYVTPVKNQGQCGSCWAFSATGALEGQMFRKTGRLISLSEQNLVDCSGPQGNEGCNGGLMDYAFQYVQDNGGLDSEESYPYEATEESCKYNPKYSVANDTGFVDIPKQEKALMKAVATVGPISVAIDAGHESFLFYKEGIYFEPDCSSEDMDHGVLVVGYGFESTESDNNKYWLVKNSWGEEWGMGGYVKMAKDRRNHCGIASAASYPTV

In the case of cathepsin L, the cleavage in vitro result is listed as “p2l/WAF1 is readily cleaved by cathepsin L in vitro”.
